Laboratory results taken from patent publication US20260199463A1 (published 2026).

B1: NEC_S_31 (VHH)
VHH: EVQLLESGGGLVQPGGSLRLSCAASGFTYSSYAMGWYRQAPGKERELVSSISGSGGSTRYADSVKGRFTISRDNSKNTLYLQMNSLKPEDTAVYYCAVAIGVGDYWGQGTQVTVSS
B2: NEC_M_17 (VHH)
VHH: EVQLLESGGGLVQPGGSLRLSCAASGFTYSGYAMGWYRQAPGKERELVSSISGSGTLTSYADSVKGRFTISRDNSKNTLYLQMNSLKPEDTAVYYCDVDIPVGDATTVGDYWGQGTQVTVSS
B3: NEC_M_8 (VHH)
VHH: EVQLLESGGGLVQPGGSLRLSCAASGFTFSSYAMGWYRQAPGKEREFVSSISGSGGLTRYADSVKGRFTISRDNSKNTLYLQMNSLKPEDTAVYYCAVTTGYQGGVYDYWGQGTQVTVSS
B4: NEC_M_5 (VHH)
VHH: EVQLLESGGGLVQPGGSLRLSCAASGLSFSSYSMGWYRQAPGKEREFVSAISGSSGSTNYADSVKGRFTISRDNSKNTLYLQMNSLKPEDTAVYYCAAEHRVTTSGVFYDYWGQGTQVTVSS
B5: NEC_M_46 (VHH)
VHH: EVQLLESGGGLVQPGGSLRLSCAASGYTFSDYAMGWYRQAPGKERELVSSISGSGGSTRYADSVKGRFTISRDNSKNTLYLQMNSLKPEDTAVYYCAAVIRQPSTGFYEYWGQGTQVTVSS
B6: NEC_S_55 (VHH)
VHH: EVQLLESGGGLVQPGGSLRLSCAASGFTLSSYAMGWYRQAPGKERELVSSISGSGGSTRYADSVKGRFTISRDNSKNTLYLQMNSLKPEDTAVYYCAAYIGGDYLGQGTQVTVSS
B7: NEC_M_44 (VHH)
VHH: EVQLLESGGGLVQPGGSLRLSCAASGRTLSSYAMGWYRQAPGKERELVSSISGSGGSTRYADSVKGRFTISRDNSKNTLYLQMNSLKPEDTAVYYCAVYILELAPGAEYWGQGTQVTVSS
B8: NEC_S_11 (VHH)
VHH: EVQLLESGGGLVQPGGSLRLSCAASGLTSSGYAMGWYRQAPGKERELVSSISSSGGLTHYADSVKGRFTISRDNSKNTLYLQMNSLKPEDTAVYYCDADIAYTGADYWGQGTQVTVSS

Each binder was assayed against huNec4.
With B1 the Kd was 84 nM.
Binder B2 has a Kd of 10 nM.
Binder B3 has a Kd of 122 nM.
B4 gave a Kd of 28 nM.
B5 was tested, and the Kd was 19 nM.
With B6 the Kd was 81 nM.
B7 gave a Kd of 33 nM.
B8 was tested, and the Kd was 302 nM.

What follows are binders tested against msNec4.
B1 gave a Kd of 10 nM.
Work on B2 yielded a Kd of 11 nM.
Work on B3 yielded a Kd of 47 nM.
For B4, the Kd was 8060 nM.
With B5 the Kd was 14 nM.
In the case of B6, the Kd is reported as 28 nM.
B7 was tested, and the Kd was 27 nM.
B8 showed a Kd of 38 nM.
